# Experimental data from patent US20150064714A1, “Polypeptides containing a modified fragment of the peptide IF1” (LIFESEARCH, priority 2013, published 2015).
# No end group written: not given here. *: point of attachment. MTSL = spin label, CC1(C)C=C(CS*)C(C)(C)N1[O]
# Tests used:
# [1] = system: F1-ATPase or SMP (F0F1-ATPase); assay: Measurement of the affinity of a labelled polypeptide for the ATPase (kinetics of inhibition of ATP hydrolysis, NADH disappearance at 340 nm); assay type: biochemical; details: kinetic results; 25° C., pH 6.5; polypeptide 15 nM to 2 μM
# Protocol: The hydrolysis of ATP by F1-ATPase or SMP (F0F1-ATPase) was measured according to the reaction illustrated below by following the disappearance of NADH over time at 340 nm.
# This reaction is carried out in a thermostatically controlled vessel (25° C.) in which the reaction medium pH 6.5 (50 mM MES, 20 mM KCl, 1 mM MgCl2, 0.4 mM NADH, 1 mM PEP, 20 units/mL pyruvate kinase and 50 unit/mL lactate dehydrogenase) is stirred. In the case of measurement of hydrolysis of ATP by the SMPs, the vessel also contains 3 μM antimycin and 3 μM FCCP.
# After recording for 2 to 4 minutes, a labelled polypeptide of the invention is injected into the measurement vessel at a concentration range of 15 nM to 2 μM and the ATPase activity decreases. The recordings are analysed and adjusted with a decreasing monoexponential function (equation 1 shown below) corresponding to the decline in the ATPase activity.
# By plotting the values of kapp obtained as a function of the concentration of IF1, the formation rate constant (kon) and dissociation rate constant (koff) of the inhibited complex F1ATPase/IF1 are determined according to the following equation: kapp=kon[I]+koff
# The relationship between the ratio V(I)/V(0) and the concentration of labelled polypeptide of the invention are linked according to the following equation:
# V(I)/V(0)=Vr+(1−Vr)/(1+[I]/k1),
# in which Vr is the fraction of V0 insensitive to IF1 inhibition.
# [2] = target: ATPase (Homo sapiens, UniProt P06576+P25705); details: fragment of IF1 of less than 34 amino acids in a fusion protein; cited from earlier work
# [3] = target: F1-ATPase (Bos taurus, UniProt P00829+P19483); details: point mutations of bovine IF1; cited from earlier work
molecule,measurement,setting,value
"SEQ ID NO: 25: cysteine-containing peptide: cysteine inserted into the median region of SEQ ID NO: 9, for labelling with the spin label MTSL (SEDSFVKRARATEDWFVRQREKEC(MTSL)QLRHLKEQLEKQRKK)",affinity for ATP synthase compared to that of natural IF1,[1],better affinity for ATP synthase
"fragment constituted by amino acid 14 to amino acid 46 of IF1: fragment of the protein IF1 in a fusion protein of US 2004/0072739 (AVRDAGGAFGKREQAEEERYFRARAKEQLAALK; UniProt P01096 39-71, looked up, fragment)",ATPase inhibiting activity,[2],better ATPase inhibiting activity
"Y33W: modified bovine IF1 containing the point mutation Y33W (Bason et al.) (protein, UniProt P01096 26-109, looked up, variant Y33W) ATPase inhibitor, …: GSESGDNVRSSAGAVRDAGGAFGKREQAEEERWFRARAKEQLAALKKHHENEISHHAKEIERLQKEIERHKQSIKKLKQSEDDD",affinity for F1-ATPase compared to the natural bovine IF1,[3],better affinity
